Measurements reported in article PMC10412584, “Molecular reshaping of phage-displayed Interleukin-2 at beta chain receptor interface to obtain potent super-agonists with improved developability profiles” (Communications Biology, 2023).

What was measured:
[1] = target: T1, recombinant fusion protein comprising human IL-2R beta subunit extracellular domain and mouse IgG2a Fc (human, UniProt P14784 27-240); assay: ELISA; polyvinyl chloride plates coated with IL-2R beta ECD/mouse IgG2a Fc at 10 µg/mL in PBS; Fc-fusion proteins diluted in M-PBS, 1 h at RT; detected with anti-human IgG-HRP; conditions: both partners purified
T1 construct: human IL-2 receptor beta subunit (CD122), extracellular domain; also called IL-2R beta/mFc; IL-2R beta ECD/mouse IgG2a Fc
T1 sequence (looked up): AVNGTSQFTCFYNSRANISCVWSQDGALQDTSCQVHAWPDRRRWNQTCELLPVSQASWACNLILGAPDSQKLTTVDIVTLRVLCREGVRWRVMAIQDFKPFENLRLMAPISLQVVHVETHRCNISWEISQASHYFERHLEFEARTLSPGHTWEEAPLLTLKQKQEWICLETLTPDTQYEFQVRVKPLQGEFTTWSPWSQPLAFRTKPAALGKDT

[2] = target: T1, recombinant fusion protein comprising …; assay: SPR; Biacore T200; IL-2R beta ECD/mouse IgG2a Fc amine-coupled to a CM5 chip; Fc-fusion proteins 1-800 nmol/L injected at 15 µL/min in PBS with 0.05% Tween 20; single-cycle mode; global fit to the 1:1 model; conditions: both partners purified

B1: 81DPQDLIE87 + I92L(K35E)/Fc (Fc fusion, human, UniProt P60568 21-153, looked up)
chain: APTSSSTKKTQLQLEHLLLDLQMILNGINNYKNPELTRMLTFKFYMPKKATELKHLQCLEEELKPLEEVLNLAQSKNFHLDPQDLIENINVLVLELKGSETTFMCEYADETATIVEFLNRWITFCQSIISTLT
notes: human interleukin-2 whose segment 81-87 reads DPQDLIE, with I92L; the first two aa (Ala-Pro) are present in the Fc constructs; source: HEK-293T adapted to suspension, transient transfection, purified from supernatant (protein A)
- binding result [1]: binds

B2: 80VPPEDLIA87 + I92L(K35E)/Fc (Fc fusion, human, UniProt P60568 21-153, looked up)
chain: APTSSSTKKTQLQLEHLLLDLQMILNGINNYKNPELTRMLTFKFYMPKKATELKHLQCLEEELKPLEEVLNLAQSKNFHVPPEDLIANINVLVLELKGSETTFMCEYADETATIVEFLNRWITFCQSIISTLT
notes: the first two aa (Ala-Pro) are present in the Fc constructs; source: HEK-293T adapted to suspension, transient transfection, purified from supernatant (protein A)
- binding result [1]: binds

B3: 81VPEDLIE87 + I92L(K35E)/Fc (Fc fusion, human, UniProt P60568 21-153, looked up)
chain: APTSSSTKKTQLQLEHLLLDLQMILNGINNYKNPELTRMLTFKFYMPKKATELKHLQCLEEELKPLEEVLNLAQSKNFHLVPEDLIENINVLVLELKGSETTFMCEYADETATIVEFLNRWITFCQSIISTLT
notes: human interleukin-2 whose segment 81-87 reads VPEDLIE, with I92L; the first two aa (Ala-Pro) are present in the Fc constructs; source: HEK-293T adapted to suspension, transient transfection, purified from supernatant (protein A)
- binding result [1]: binds

B4: H9(K35E)/Fc in which F92 was replaced by the phage-selected Leu (Fc fusion, human, UniProt P60568 21-153, looked up)
chain: APTSSSTKKTQLQLEHLLLDLQMILNGINNYKNPELTRMLTFKFYMPKKATELKHLQCLEEELKPLEEVLNLAQSKNFHFDPRDVVSNINVLVLELKGSETTFMCEYADETATIVEFLNRWITFCQSIISTLT
notes: human interleukin-2 with the H9 mutations except that residue 92 is Leu; the first two aa (Ala-Pro) are present in the Fc constructs; also called F92L-containing protein; source: HEK-293T adapted to suspension, transient transfection, purified from supernatant (protein A)
- binding result [1]: binds

B5: 80VPPEDLIE87 + I92L(K35E)/Fc (Fc fusion, human, UniProt P60568 21-153, looked up)
chain: APTSSSTKKTQLQLEHLLLDLQMILNGINNYKNPELTRMLTFKFYMPKKATELKHLQCLEEELKPLEEVLNLAQSKNFHVPPEDLIENINVLVLELKGSETTFMCEYADETATIVEFLNRWITFCQSIISTLT
notes: the first two aa (Ala-Pro) are present in the Fc constructs; also called variant 2B further optimized by incorporating S87E; source: HEK-293T adapted to suspension, transient transfection, purified from supernatant (protein A)
- binding result [1]: binds

B6: 81VPEDLIE87(K35E)/Fc (Fc fusion, human, UniProt P60568 21-153, looked up)
chain: APTSSSTKKTQLQLEHLLLDLQMILNGINNYKNPELTRMLTFKFYMPKKATELKHLQCLEEELKPLEEVLNLAQSKNFHLVPEDLIENINVIVLELKGSETTFMCEYADETATIVEFLNRWITFCQSIISTLT
notes: human interleukin-2 whose segment 81-87 reads VPEDLIE; the first two aa (Ala-Pro) are present in the Fc constructs; source: HEK-293T adapted to suspension, transient transfection, purified from supernatant (protein A)
- binding result [1]: binds

B7: H9(K35E)/Fc (Fc fusion, human, UniProt P60568 21-153, looked up)
chain: APTSSSTKKTQLQLEHLLLDLQMILNGINNYKNPELTRMLTFKFYMPKKATELKHLQCLEEELKPLEEVLNLAQSKNFHFDPRDVVSNINVFVLELKGSETTFMCEYADETATIVEFLNRWITFCQSIISTLT
notes: human interleukin-2 with the mutations of H9 superkine and K35E; the first two aa (Ala-Pro) are present in the Fc constructs; Heavily aggregated in SEC; also called H9(K35)/Fc; fusion protein based on H9 superkine; source: HEK-293T adapted to suspension, transient transfection, purified from supernatant (protein A)
- fold decrease of KD against IL-2(K35E)/Fc [2]: ~25 fold
- koff [2]: ~0.0003 s⁻¹

B8: 80FDPHDVVE87 + I92L + V93L(K35E)/Fc (Fc fusion, human, UniProt P60568 21-153, looked up)
chain: APTSSSTKKTQLQLEHLLLDLQMILNGINNYKNPELTRMLTFKFYMPKKATELKHLQCLEEELKPLEEVLNLAQSKNFHFDPHDVVENINVLLLELKGSETTFMCEYADETATIVEFLNRWITFCQSIISTLT
notes: the first two aa (Ala-Pro) are present in the Fc constructs; also called fusion protein derived from phage clone 1A; source: HEK-293T adapted to suspension, transient transfection, purified from supernatant (protein A)
- binding result [1]: binds

B9: 80FDPEDVVE87 + I92L(K35E)/Fc (Fc fusion, human, UniProt P60568 21-153, looked up)
chain: APTSSSTKKTQLQLEHLLLDLQMILNGINNYKNPELTRMLTFKFYMPKKATELKHLQCLEEELKPLEEVLNLAQSKNFHFDPEDVVENINVLVLELKGSETTFMCEYADETATIVEFLNRWITFCQSIISTLT
notes: as for B2
- binding result [1]: binds

B10: 80FDPADVVE87 + I92L(K35E)/Fc (Fc fusion, human, UniProt P60568 21-153, looked up)
chain: APTSSSTKKTQLQLEHLLLDLQMILNGINNYKNPELTRMLTFKFYMPKKATELKHLQCLEEELKPLEEVLNLAQSKNFHFDPADVVENINVLVLELKGSETTFMCEYADETATIVEFLNRWITFCQSIISTLT
notes: as for B2
- binding result [1]: binds

B11: H9(K35E)/Fc in which F92 was replaced by the original Ile (Fc fusion, human, UniProt P60568 21-153, looked up)
chain: APTSSSTKKTQLQLEHLLLDLQMILNGINNYKNPELTRMLTFKFYMPKKATELKHLQCLEEELKPLEEVLNLAQSKNFHFDPRDVVSNINVIVLELKGSETTFMCEYADETATIVEFLNRWITFCQSIISTLT
notes: human interleukin-2 with the H9 mutations except that residue 92 is the original Ile; the first two aa (Ala-Pro) are present in the Fc constructs; also called F92I-containing protein; source: HEK-293T adapted to suspension, transient transfection, purified from supernatant (protein A)
- binding result [1]: binds

B12: 81DPQDLIE87(K35E)/Fc (Fc fusion, human, UniProt P60568 21-153, looked up)
chain: APTSSSTKKTQLQLEHLLLDLQMILNGINNYKNPELTRMLTFKFYMPKKATELKHLQCLEEELKPLEEVLNLAQSKNFHLDPQDLIENINVIVLELKGSETTFMCEYADETATIVEFLNRWITFCQSIISTLT
notes: human interleukin-2 whose segment 81-87 reads DPQDLIE; the first two aa (Ala-Pro) are present in the Fc constructs; source: HEK-293T adapted to suspension, transient transfection, purified from supernatant (protein A)
- binding result [1]: binds
